Data published in US20260167699A1 (Chugai, published 2026).

Target: T1, FcγRIIIa extracellular domain, C-terminal His tag (human, UniProt P08637 17-208)
T1 construct: extracellular domain; also called 3a
Assay: SPR, binding activity relative to GpH7-A5/GpH7-B3/GpL16-k0 (=100)

T1 sequence (P08637 other isoform, or with tags, fused parts or gaps): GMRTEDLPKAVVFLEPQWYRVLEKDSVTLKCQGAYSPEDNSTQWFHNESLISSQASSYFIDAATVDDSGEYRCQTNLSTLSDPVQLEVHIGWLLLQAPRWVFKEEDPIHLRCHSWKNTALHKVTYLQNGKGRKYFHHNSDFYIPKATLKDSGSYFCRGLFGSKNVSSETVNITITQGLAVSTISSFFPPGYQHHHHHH

Binder	He/Con 3a [%]
GpH7-A5/GpH7-B3 variant E269_02A/GpL16-k0 (antibody, human IgG1, kappa, He Ab; copies: 1 + 1 + 2) heavy 1: not shown heavy 2: not shown light: DIVMTQSPLSLPVTPGEPASISCQASESLVHSNRNTYLHWYLQKPGQSPQLLIYKVSNRFSGVPDRFSGSGSGTDFTLKISRVEAEDVGVYYCSQNTHVPPTFGQGTKVEIERTVAAPSVFIFPPSDEQLKSGTASVVCLLNNFYPREAKVQWKVDNALQSGNSQESVTEQDSKDSTYSLSSTLTLSKADYEKHKVYACEVTHQGLSSPVTKSFNRGEC	68
GpH7-A5/GpH7-B3 variant E269_06M/GpL16-k0 (antibody, human IgG1, kappa, He Ab; copies: 1 + 1 + 2) heavy 1: not shown heavy 2: not shown light: DIVMTQSPLSLPVTPGEPASISCQASESLVHSNRNTYLHWYLQKPGQSPQLLIYKVSNRFSGVPDRFSGSGSGTDFTLKISRVEAEDVGVYYCSQNTHVPPTFGQGTKVEIERTVAAPSVFIFPPSDEQLKSGTASVVCLLNNFYPREAKVQWKVDNALQSGNSQESVTEQDSKDSTYSLSSTLTLSKADYEKHKVYACEVTHQGLSSPVTKSFNRGEC	57.9
GpH7-A5/GpH7-B3 variant E269_18N/GpL16-k0 (antibody, human IgG1, kappa, He Ab; copies: 1 + 1 + 2) heavy 1: not shown heavy 2: not shown light: DIVMTQSPLSLPVTPGEPASISCQASESLVHSNRNTYLHWYLQKPGQSPQLLIYKVSNRFSGVPDRFSGSGSGTDFTLKISRVEAEDVGVYYCSQNTHVPPTFGQGTKVEIERTVAAPSVFIFPPSDEQLKSGTASVVCLLNNFYPREAKVQWKVDNALQSGNSQESVTEQDSKDSTYSLSSTLTLSKADYEKHKVYACEVTHQGLSSPVTKSFNRGEC	57.2
GpH7-A5/GpH7-B3 variant E269_15Y/GpL16-k0 (antibody, human IgG1, kappa, He Ab; copies: 1 + 1 + 2) heavy 1: not shown heavy 2: not shown light: DIVMTQSPLSLPVTPGEPASISCQASESLVHSNRNTYLHWYLQKPGQSPQLLIYKVSNRFSGVPDRFSGSGSGTDFTLKISRVEAEDVGVYYCSQNTHVPPTFGQGTKVEIERTVAAPSVFIFPPSDEQLKSGTASVVCLLNNFYPREAKVQWKVDNALQSGNSQESVTEQDSKDSTYSLSSTLTLSKADYEKHKVYACEVTHQGLSSPVTKSFNRGEC	51.5
GpH7-A5/GpH7-B3 variant E333_06M/GpL16-k0 (antibody, human IgG1, kappa, He Ab; copies: 1 + 1 + 2) heavy 1: not shown heavy 2: not shown light: DIVMTQSPLSLPVTPGEPASISCQASESLVHSNRNTYLHWYLQKPGQSPQLLIYKVSNRFSGVPDRFSGSGSGTDFTLKISRVEAEDVGVYYCSQNTHVPPTFGQGTKVEIERTVAAPSVFIFPPSDEQLKSGTASVVCLLNNFYPREAKVQWKVDNALQSGNSQESVTEQDSKDSTYSLSSTLTLSKADYEKHKVYACEVTHQGLSSPVTKSFNRGEC	100
GpH7-A5/GpH7-B3 variant E269_19Q/GpL16-k0 (antibody, human IgG1, kappa, He Ab; copies: 1 + 1 + 2) heavy 1: not shown heavy 2: not shown light: DIVMTQSPLSLPVTPGEPASISCQASESLVHSNRNTYLHWYLQKPGQSPQLLIYKVSNRFSGVPDRFSGSGSGTDFTLKISRVEAEDVGVYYCSQNTHVPPTFGQGTKVEIERTVAAPSVFIFPPSDEQLKSGTASVVCLLNNFYPREAKVQWKVDNALQSGNSQESVTEQDSKDSTYSLSSTLTLSKADYEKHKVYACEVTHQGLSSPVTKSFNRGEC	64.3
GpH7-A5/GpH7-B3 variant E269_07I/GpL16-k0 (antibody, human IgG1, kappa, He Ab; copies: 1 + 1 + 2) heavy 1: not shown heavy 2: not shown light: DIVMTQSPLSLPVTPGEPASISCQASESLVHSNRNTYLHWYLQKPGQSPQLLIYKVSNRFSGVPDRFSGSGSGTDFTLKISRVEAEDVGVYYCSQNTHVPPTFGQGTKVEIERTVAAPSVFIFPPSDEQLKSGTASVVCLLNNFYPREAKVQWKVDNALQSGNSQESVTEQDSKDSTYSLSSTLTLSKADYEKHKVYACEVTHQGLSSPVTKSFNRGEC	55.3
GpH7-A5/GpH7-B3 variant E269_09D/GpL16-k0 (antibody, human IgG1, kappa, He Ab; copies: 1 + 1 + 2) heavy 1: not shown heavy 2: not shown light: DIVMTQSPLSLPVTPGEPASISCQASESLVHSNRNTYLHWYLQKPGQSPQLLIYKVSNRFSGVPDRFSGSGSGTDFTLKISRVEAEDVGVYYCSQNTHVPPTFGQGTKVEIERTVAAPSVFIFPPSDEQLKSGTASVVCLLNNFYPREAKVQWKVDNALQSGNSQESVTEQDSKDSTYSLSSTLTLSKADYEKHKVYACEVTHQGLSSPVTKSFNRGEC	106
GpH7-A5/GpH7-B3 variant E269_14T/GpL16-k0 (antibody, human IgG1, kappa, He Ab; copies: 1 + 1 + 2) heavy 1: not shown heavy 2: not shown light: DIVMTQSPLSLPVTPGEPASISCQASESLVHSNRNTYLHWYLQKPGQSPQLLIYKVSNRFSGVPDRFSGSGSGTDFTLKISRVEAEDVGVYYCSQNTHVPPTFGQGTKVEIERTVAAPSVFIFPPSDEQLKSGTASVVCLLNNFYPREAKVQWKVDNALQSGNSQESVTEQDSKDSTYSLSSTLTLSKADYEKHKVYACEVTHQGLSSPVTKSFNRGEC	59.7
GpH7-A5/GpH7-B3 variant E269_16H/GpL16-k0 (antibody, human IgG1, kappa, He Ab; copies: 1 + 1 + 2) heavy 1: not shown heavy 2: not shown light: DIVMTQSPLSLPVTPGEPASISCQASESLVHSNRNTYLHWYLQKPGQSPQLLIYKVSNRFSGVPDRFSGSGSGTDFTLKISRVEAEDVGVYYCSQNTHVPPTFGQGTKVEIERTVAAPSVFIFPPSDEQLKSGTASVVCLLNNFYPREAKVQWKVDNALQSGNSQESVTEQDSKDSTYSLSSTLTLSKADYEKHKVYACEVTHQGLSSPVTKSFNRGEC	50.7
GpH7-A5/GpH7-B3 variant E269_03V/GpL16-k0 (antibody, human IgG1, kappa, He Ab; copies: 1 + 1 + 2) heavy 1: not shown heavy 2: not shown light: DIVMTQSPLSLPVTPGEPASISCQASESLVHSNRNTYLHWYLQKPGQSPQLLIYKVSNRFSGVPDRFSGSGSGTDFTLKISRVEAEDVGVYYCSQNTHVPPTFGQGTKVEIERTVAAPSVFIFPPSDEQLKSGTASVVCLLNNFYPREAKVQWKVDNALQSGNSQESVTEQDSKDSTYSLSSTLTLSKADYEKHKVYACEVTHQGLSSPVTKSFNRGEC	56
GpH7-A5/GpH7-B3 variant E269_08L/GpL16-k0 (antibody, human IgG1, kappa, He Ab; copies: 1 + 1 + 2) heavy 1: not shown heavy 2: not shown light: DIVMTQSPLSLPVTPGEPASISCQASESLVHSNRNTYLHWYLQKPGQSPQLLIYKVSNRFSGVPDRFSGSGSGTDFTLKISRVEAEDVGVYYCSQNTHVPPTFGQGTKVEIERTVAAPSVFIFPPSDEQLKSGTASVVCLLNNFYPREAKVQWKVDNALQSGNSQESVTEQDSKDSTYSLSSTLTLSKADYEKHKVYACEVTHQGLSSPVTKSFNRGEC	51.5
GpH7-A5/GpH7-B3 variant E269_13S/GpL16-k0 (antibody, human IgG1, kappa, He Ab; copies: 1 + 1 + 2) heavy 1: not shown heavy 2: not shown light: DIVMTQSPLSLPVTPGEPASISCQASESLVHSNRNTYLHWYLQKPGQSPQLLIYKVSNRFSGVPDRFSGSGSGTDFTLKISRVEAEDVGVYYCSQNTHVPPTFGQGTKVEIERTVAAPSVFIFPPSDEQLKSGTASVVCLLNNFYPREAKVQWKVDNALQSGNSQESVTEQDSKDSTYSLSSTLTLSKADYEKHKVYACEVTHQGLSSPVTKSFNRGEC	62.1
GpH7-A5/GpH7-B3 variant E333_01G/GpL16-k0 (antibody, human IgG1, kappa, He Ab; copies: 1 + 1 + 2) heavy 1: not shown heavy 2: not shown light: DIVMTQSPLSLPVTPGEPASISCQASESLVHSNRNTYLHWYLQKPGQSPQLLIYKVSNRFSGVPDRFSGSGSGTDFTLKISRVEAEDVGVYYCSQNTHVPPTFGQGTKVEIERTVAAPSVFIFPPSDEQLKSGTASVVCLLNNFYPREAKVQWKVDNALQSGNSQESVTEQDSKDSTYSLSSTLTLSKADYEKHKVYACEVTHQGLSSPVTKSFNRGEC	101

Results, then the binder that gave them:

He/Con 3a [%]	Binder
100	GpH7-A5/GpH7-B3 variant E333_07I/GpL16-k0 (antibody, human IgG1, kappa, He Ab; copies: 1 + 1 + 2) heavy 1: not shown heavy 2: not shown light: DIVMTQSPLSLPVTPGEPASISCQASESLVHSNRNTYLHWYLQKPGQSPQLLIYKVSNRFSGVPDRFSGSGSGTDFTLKISRVEAEDVGVYYCSQNTHVPPTFGQGTKVEIERTVAAPSVFIFPPSDEQLKSGTASVVCLLNNFYPREAKVQWKVDNALQSGNSQESVTEQDSKDSTYSLSSTLTLSKADYEKHKVYACEVTHQGLSSPVTKSFNRGEC
92.2	GpH7-A5/GpH7-B3 variant E333_12R/GpL16-k0 (antibody, human IgG1, kappa, He Ab; copies: 1 + 1 + 2) heavy 1: not shown heavy 2: not shown light: DIVMTQSPLSLPVTPGEPASISCQASESLVHSNRNTYLHWYLQKPGQSPQLLIYKVSNRFSGVPDRFSGSGSGTDFTLKISRVEAEDVGVYYCSQNTHVPPTFGQGTKVEIERTVAAPSVFIFPPSDEQLKSGTASVVCLLNNFYPREAKVQWKVDNALQSGNSQESVTEQDSKDSTYSLSSTLTLSKADYEKHKVYACEVTHQGLSSPVTKSFNRGEC
53.8	GpH7-A5/GpH7-B3 variant G236_03V/GpL16-k0 (antibody, human IgG1, kappa, He Ab; copies: 1 + 1 + 2) heavy 1: not shown heavy 2: not shown light: DIVMTQSPLSLPVTPGEPASISCQASESLVHSNRNTYLHWYLQKPGQSPQLLIYKVSNRFSGVPDRFSGSGSGTDFTLKISRVEAEDVGVYYCSQNTHVPPTFGQGTKVEIERTVAAPSVFIFPPSDEQLKSGTASVVCLLNNFYPREAKVQWKVDNALQSGNSQESVTEQDSKDSTYSLSSTLTLSKADYEKHKVYACEVTHQGLSSPVTKSFNRGEC
76.2	GpH7-A5/GpH7-B3 variant E333_18N/GpL16-k0 (antibody, human IgG1, kappa, He Ab; copies: 1 + 1 + 2) heavy 1: not shown heavy 2: not shown light: DIVMTQSPLSLPVTPGEPASISCQASESLVHSNRNTYLHWYLQKPGQSPQLLIYKVSNRFSGVPDRFSGSGSGTDFTLKISRVEAEDVGVYYCSQNTHVPPTFGQGTKVEIERTVAAPSVFIFPPSDEQLKSGTASVVCLLNNFYPREAKVQWKVDNALQSGNSQESVTEQDSKDSTYSLSSTLTLSKADYEKHKVYACEVTHQGLSSPVTKSFNRGEC
100	GpH7-A5/GpH7-B3 variant E333_14T/GpL16-k0 (antibody, human IgG1, kappa, He Ab; copies: 1 + 1 + 2) heavy 1: not shown heavy 2: not shown light: DIVMTQSPLSLPVTPGEPASISCQASESLVHSNRNTYLHWYLQKPGQSPQLLIYKVSNRFSGVPDRFSGSGSGTDFTLKISRVEAEDVGVYYCSQNTHVPPTFGQGTKVEIERTVAAPSVFIFPPSDEQLKSGTASVVCLLNNFYPREAKVQWKVDNALQSGNSQESVTEQDSKDSTYSLSSTLTLSKADYEKHKVYACEVTHQGLSSPVTKSFNRGEC
97.7	GpH7-A5/GpH7-B3 variant E333_11K/GpL16-k0 (antibody, human IgG1, kappa, He Ab; copies: 1 + 1 + 2) heavy 1: not shown heavy 2: not shown light: DIVMTQSPLSLPVTPGEPASISCQASESLVHSNRNTYLHWYLQKPGQSPQLLIYKVSNRFSGVPDRFSGSGSGTDFTLKISRVEAEDVGVYYCSQNTHVPPTFGQGTKVEIERTVAAPSVFIFPPSDEQLKSGTASVVCLLNNFYPREAKVQWKVDNALQSGNSQESVTEQDSKDSTYSLSSTLTLSKADYEKHKVYACEVTHQGLSSPVTKSFNRGEC
81	GpH7-A5/GpH7-B3 variant G236_04F/GpL16-k0 (antibody, human IgG1, kappa, He Ab; copies: 1 + 1 + 2) heavy 1: not shown heavy 2: not shown light: DIVMTQSPLSLPVTPGEPASISCQASESLVHSNRNTYLHWYLQKPGQSPQLLIYKVSNRFSGVPDRFSGSGSGTDFTLKISRVEAEDVGVYYCSQNTHVPPTFGQGTKVEIERTVAAPSVFIFPPSDEQLKSGTASVVCLLNNFYPREAKVQWKVDNALQSGNSQESVTEQDSKDSTYSLSSTLTLSKADYEKHKVYACEVTHQGLSSPVTKSFNRGEC
77	GpH7-A5/GpH7-B3 variant G236_02A/GpL16-k0 (antibody, human IgG1, kappa, He Ab; copies: 1 + 1 + 2) heavy 1: not shown heavy 2: not shown light: DIVMTQSPLSLPVTPGEPASISCQASESLVHSNRNTYLHWYLQKPGQSPQLLIYKVSNRFSGVPDRFSGSGSGTDFTLKISRVEAEDVGVYYCSQNTHVPPTFGQGTKVEIERTVAAPSVFIFPPSDEQLKSGTASVVCLLNNFYPREAKVQWKVDNALQSGNSQESVTEQDSKDSTYSLSSTLTLSKADYEKHKVYACEVTHQGLSSPVTKSFNRGEC
